Test results reported in publication PMC9865355.

What was measured:
Experiment in all cases: split reporter (BiFC, NanoBiT)
[1] = target: GLRaV-3 silencing suppressor p20B, BiFC fusion (grapevine leafroll-associated virus 3 (isolate GP18))
[2] = target: GLRaV-3 coat protein (CP), BiFC fusion (grapevine leafroll-associated virus 3 (isolate GP18))
[3] = target: GLRaV-3 heat shock protein 70 homolog (HSP70h), BiFC fusion (grapevine leafroll-associated virus 3 (isolate GP18))
[4] = target: GLRaV-3 transmembrane movement protein p5, BiFC fusion (grapevine leafroll-associated virus 3 (isolate GP18))

## GLRaV-3 coat protein (CP), BiFC fusion (natural protein)
[1]
  average MI diff: 55.7
[2]
  average MI diff: 27

## GLRaV-3 heat shock protein 70 homolog (HSP70h), BiFC fusion (natural protein)
[3]
  average MI diff: 51.8
[1]
  average MI diff: 45.5
[2]
  average MI diff: 34.6

## GLRaV-3 minor coat protein (CPm), BiFC fusion (natural protein)
[1]
  average MI diff: 27.2

## GLRaV-3 silencing suppressor p20B, BiFC fusion (natural protein)
[1]
  average MI diff: 92.7

## GLRaV-3 transmembrane movement protein p5, BiFC fusion (natural protein)
[4]
  average MI diff: 114
